Source: article PMC10095097

Target: NTR 2.0 (engineered nitroreductase; Vibrio vulnificus NfsB F70A/F108Y) (Vibrio vulnificus (CMCP6))
Test: crystal structure; hanging-drop vapour diffusion at 291 K; protein 10 mg/mL in 40 mM Tris-HCl pH 7.0, 200 mM NaCl; precipitant 0.1 M sodium acetate trihydrate pH 4.5, 32% (v/v) PEG 300; two molecules in the asymmetric unit; FMN and acetate bound

NTR 2.0 (engineered nitroreductase; Vibrio vulnificus NfsB F70A/F108Y) (enzyme)
stoichiometry N: 2
